The source of these data is patent US20140017235A1 (published 2014).

This test deals with T1, human NGF (human, UniProt P01138 122-241).
T1 construct: also called hNGF; nerve growth factor
As to the kind of experiment: BIAcore SPR screening, Fab over immobilized human NGF. How it is done:
Affinities of anti-NGF Fabs and monoclonal antibodies were determined using the BIAcore3000™ surface plasmon resonance (SPR) system (BIAcore, INC, Piscaway N.J.). CM5 chips were activated with N-ethyl-N′-(3-dimethylaminopropyl)-carbodiinide hydrochloride (EDC) and N-hydroxysuccinimide (NHS) according to the supplier's instructions. Human NGF was diluted into 10 mM sodium acetate pH 4.0 and injected over the activated chip at a concentration of 0.005 mg/mL. Using variable flow time across the individual chip channels, two ranges of antigen density were achieved: 100-200 response units (RU) for detailed kinetic studies and 500-600 RU for screening assays. The chip was blocked with ethanolamine. […] HBS-EP buffer (0.01M HEPES, pH 7.4, 0.15 NaCl, 3 mM EDTA, 0.005% Surfactant […]) was used as running buffer for all the BIAcore assays.
A general note: SPR reads the build-up and loss of mass on a sensor chip optically.

T1 sequence (P01138 122-241 limits assumed): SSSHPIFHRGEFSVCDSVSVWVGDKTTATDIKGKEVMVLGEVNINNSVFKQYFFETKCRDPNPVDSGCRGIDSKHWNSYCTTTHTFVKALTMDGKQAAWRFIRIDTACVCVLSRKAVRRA

B1: H19-L129 (Fab, V domains shown)
VH: QVQLQESGPGLVKPSETLSLTCTVSGFSLIGYDLNWIRQPPGKGLEWIGIIWGDGTTDYNSAVKSRVTISKDTSKNQFSLKLSSVTAADTAVYYCARGGYYYGTSYYFDYWGQGTLVTVS
VL: DIQMTQSPSSLSASVGDRVTITCRASQSISNNLNWYQQKPGKAPKLLIYYTSRFHSGVPSRFSGSGSGTDFTFTISSLQPEDIATYYCQQSKTLPYTFGQGTKLEIKR
notes: E. coli Fab with human Ckappa and human IgG2a CH1; also called H19-L129 Fab; Fab H19-L129
B1: the koff (in general, the rate constant with which the complex falls apart) was determined as 0.0001 s⁻¹.
